From patent publication CN110218251A (FUZHOU MAIXIN BIOTECHNOLOGY DEV CO LTD, dated 2019)

Target: T1, MSH2蛋白 (endogenous, in HCT8 and Biu-87 cell lysates and in human tissue sections) (human, UniProt P43246 2-934)
T1 construct: Endogenous protein; also called MutS homolog 2
Assay: IHC on tonsil tissue

T1 sequence (P43246 2-934 limits assumed): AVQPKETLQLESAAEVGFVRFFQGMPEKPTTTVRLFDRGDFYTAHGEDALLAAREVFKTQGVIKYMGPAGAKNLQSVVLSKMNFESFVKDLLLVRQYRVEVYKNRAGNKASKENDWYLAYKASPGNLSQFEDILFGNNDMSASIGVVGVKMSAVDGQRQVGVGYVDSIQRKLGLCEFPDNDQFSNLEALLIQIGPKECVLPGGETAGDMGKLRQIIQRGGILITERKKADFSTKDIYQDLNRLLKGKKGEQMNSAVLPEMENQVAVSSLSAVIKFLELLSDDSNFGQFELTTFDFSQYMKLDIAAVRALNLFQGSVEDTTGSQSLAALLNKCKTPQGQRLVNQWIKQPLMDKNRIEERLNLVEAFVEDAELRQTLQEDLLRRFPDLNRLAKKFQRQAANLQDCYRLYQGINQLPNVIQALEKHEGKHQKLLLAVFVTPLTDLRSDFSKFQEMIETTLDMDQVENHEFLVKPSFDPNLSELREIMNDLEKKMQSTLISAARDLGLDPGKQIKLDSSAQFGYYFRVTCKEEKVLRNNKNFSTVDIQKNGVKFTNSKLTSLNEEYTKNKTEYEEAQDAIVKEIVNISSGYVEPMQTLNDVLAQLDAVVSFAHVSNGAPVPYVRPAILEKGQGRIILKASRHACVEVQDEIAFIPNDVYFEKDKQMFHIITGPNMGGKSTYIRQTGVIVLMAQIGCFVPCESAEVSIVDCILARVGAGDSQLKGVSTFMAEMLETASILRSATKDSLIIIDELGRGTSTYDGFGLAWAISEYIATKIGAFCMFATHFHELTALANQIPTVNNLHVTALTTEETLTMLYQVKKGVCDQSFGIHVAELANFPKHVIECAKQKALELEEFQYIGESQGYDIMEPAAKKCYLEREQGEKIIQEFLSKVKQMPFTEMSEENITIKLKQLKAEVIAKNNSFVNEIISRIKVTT

B1: 抗MSH2蛋白单克隆抗体(1B11-14-16) (antibody, V domains shown)
VH: QVQLQQSGAELMKPGASVRISCKATGYTFTRYWIEWVKERPGHGLEWIGEILPGSGGTNYNEKFKGKATFTADTSSNTVHMQLNSLTSEDSAVYYCVKREGPYWGRGTLVTVSA
VL: DVLMTQTPLSLPVSLGDQASISCRSSQSIVYRTGSTFLEWYLQKPGQSPKLLIYKVSNRFSGVPDRFSGSGSGTDFTLKISRVEAEDLGVYYCFQGSHLPYTFGGGTKLEIK
notes: also called MSH2(1B11-14-16)单克隆抗体; 1B11-14-16的MSH2
Q: Does B1 bind?
A: Result: binds
